Measured values from publication PMC3185003.

Tests used:
[1] = target: ABD_(TNF1) displayed on staphylococcal cells; experiment: flow cytometry on cells; S. carnosus cells displaying ABD-variants incubated 1 h at RT in PBSP pH 7.4 with twelve concentrations of biotinylated TNF-α (4.3-12900 nM; streptavidin-Alexa Fluor 488) or HSA-Alexa 488 (1.25-2500 nM; 10-20000 nM for ABD_(TNF1)); MFI fitted to a 1:1 model; apparent KD for TNF-α (monomer concentration)
[2] = target: ABD_(TNF2) displayed on staphylococcal cells; experiment: as above
[3] = target: ABD_(T002); experiment: SPR; ProteOn XPR36; ABD-molecules immobilized by amine coupling on GLM or GLC chips (about 800-1500 RU); HSA (7-1200 nM) or TNF-α (1-100 nM) injected, 50 µl/min, 25°C, PBS with 0.1% Tween 20; at least triplicates, two chips, two days; apparent KD for TNF-α (monomer concentration)
[4] = target: ABD_(HT015); experiment: as above
[5] = target: ABD_(T001); experiment: as above
[6] = target: ABD_(T004); experiment: as above
[7] = target: ABD_(HT016); experiment: as above
[8] = target: non-randomized ABD displayed on staphylococcal cells (not stated (streptococcal)); experiment: flow cytometry on cells; S. carnosus cells displaying ABD-variants incubated 1 h at RT in PBSP pH 7.4 with twelve concentrations of biotinylated TNF-α (4.3-12900 nM; streptavidin-Alexa Fluor 488) or HSA-Alexa 488 (1.25-2500 nM; 10-20000 nM for ABD_(TNF1)); MFI fitted to a 1:1 model; apparent KD for TNF-α (monomer concentration)
[9] = target: human serum albumin (human) (UniProt P02768); experiment: SPR; BIAcore 2000; HSA immobilized (2000 RU); ABD-variants injected in duplicates at about 1-3000 nM (up to 250 nM for ABD); 25°C, HBS-EP

biotinylated TNF-α, sequence (P01375 77-233): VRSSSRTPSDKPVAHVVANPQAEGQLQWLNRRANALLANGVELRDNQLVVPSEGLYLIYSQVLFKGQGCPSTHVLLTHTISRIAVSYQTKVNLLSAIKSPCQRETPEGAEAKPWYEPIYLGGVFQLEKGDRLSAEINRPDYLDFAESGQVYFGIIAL

| Kd [2] [nM] | Kd [3] [nM] | Kd [5] [nM] | Kd [7] [nM] | Substance | other results |
| --- | --- | --- | --- | --- | --- |
| 594 | – | – | – | biotinylated TNF-α (from UniProt P01375 77-233) (ligand) | Kd [1]: 267 nM |
| – | 649 | 192 | 68 | human serum albumin (from UniProt P02768 25-609) (natural protein) | Kd [4]: 35 nM; Kd [6]: 209 nM |
| 23 | – | – | – | HSA conjugated to Alexa Fluor 488 (from UniProt P02768 25-609) (natural protein) | Kd [8]: 19 nM |
| – | – | – | – | non-randomized ABD (alkali-stabilized albumin-binding domain from streptococcal protein G) (domain or fragment) | Kd [9]: 5.3 nM; koff [9]: 0.0009 s⁻¹; kon [9]: 170000 M⁻¹ s⁻¹ |
| – | 2.9 | 5.2 | 4.5 | tumor necrosis factor-α (from UniProt P01375 77-233) (ligand) | – |
